Measured values reported in patent publication US20220098303A1 (GlaxoSmithKline, published 2022).

Target: cynomolgus PD-1 (cynomolgus)
Experiment: kinetic analysis (bio-light interferometry)

B1: Pembrolizumab (antibody, V domains shown)
VH: QVQLVQSGVEVKKPGASVKVSCKASGYTFTNYYMYWVRQAPGQGLEWMGGINPSNGGTNFNEKFKNRVTLTTDSSTTTAYMELKSLQFDDTAVYYCARRDYRFDMGFDYWGQGTTVTVSS
VL: EIVLTQSPATLSLSPGERATLSCRASKGVSTSGYSYLHWYQQKPGQAPRLLIYLASYLESGVPARFSGSGSGTDFTLTISSLEPEDFAVYYCQHSRDLPLTFGGGTKVEIKR
notes: also called MK3475
B1 was tested, and the Kd was 0.118 nM.
